In patent US8026218:
Bridge positions count the residues as written; N and C are the ends. Square brackets hold non-standard residues; d marks the D form. Primed or numbered codes have the meaning given here. Ends that are not written are not given here. * marks the point of attachment. NMeBn(CF3)2 = C-terminal N-methyl bis(trifluoromethyl)benzyl amide; Glc = O-glucosyl on Ser side chain (Ser(OGlu)/Ser(OGlc)); NH(3,5-(CF3)2-benzyl) = FC(F)(F)c1cc(CN*)cc(C(F)(F)F)c1; OBzl(3,5-(CF3)2) = FC(F)(F)c1cc(CO*)cc(C(F)(F)F)c1; Glc″ = glucosyl on the serine side-chain oxygen; OBn(OMe)2 = C-terminal OBn(OMe)2 ester; Dmt = Cc1cc(O)cc(C)c1C[C@H](N)C(=O)O; NMe(benzyl) = CN(Cc1ccccc1)*; Nle = CCCC[C@H](N)C(=O)O; NHBn = c1ccc(CN*)cc1; OBn = c1ccc(CO*)cc1

B1: TyrDAlaGlyPheNleProLeuTrpOBn(CF3)2 (TY018) (peptide)
peptide: YAGFXPLW
modifications: here or on the partner: D-Ala at 2; Nle (norleucine) at 5 (X); C-terminal O-3,5-Bn(CF3)2 ester
B2: TyrDAlaGlyPheMet(O)ProLeuTrpOBn(CF3)2 (TY023) (peptide)
peptide: YAGFMPLW
modifications: here or on the partner: D-Ala at 2; Met(O) (oxidized methionine) at 5; C-terminal O-3,5-Bn(CF3)2 ester
B3: TyrDAlaGlyPheNleProLeuTrpNHBn(CF3)2 (peptide)
peptide: YAGFXPLW
modifications: here or on the partner: D-Ala at 2; Nle at 5 (written X); C-terminal NH-3,5-Bzl(CF3)2 amide
B4: TyrDAlaGlyPheNleProLeuTrpOBn(CF3)2 (peptide)
peptide: YAGFXPLW
modifications: here or on the partner: D-Ala at 2; Nle at 5 (written X); C-terminal O-3,5-Bzl(CF3)2 ester
B5: TyrDAlaGlyPheMet(O)ProLeuTrpOBn(CF3)2 (peptide)
peptide: YAGFMPLW
modifications: here or on the partner: D-Ala at 2; Met(O) at 5; C-terminal O-3,5-Bzl(CF3)2 ester

These binders were tested against δ opioid receptor of the mouse isolated vas deferens (mouse), P32300 (assay: cell-based or functional assay).
Chain of δ opioid receptor of the mouse isolated vas deferens (mouse), P32300 (P32300 whole entry, stated change not applied): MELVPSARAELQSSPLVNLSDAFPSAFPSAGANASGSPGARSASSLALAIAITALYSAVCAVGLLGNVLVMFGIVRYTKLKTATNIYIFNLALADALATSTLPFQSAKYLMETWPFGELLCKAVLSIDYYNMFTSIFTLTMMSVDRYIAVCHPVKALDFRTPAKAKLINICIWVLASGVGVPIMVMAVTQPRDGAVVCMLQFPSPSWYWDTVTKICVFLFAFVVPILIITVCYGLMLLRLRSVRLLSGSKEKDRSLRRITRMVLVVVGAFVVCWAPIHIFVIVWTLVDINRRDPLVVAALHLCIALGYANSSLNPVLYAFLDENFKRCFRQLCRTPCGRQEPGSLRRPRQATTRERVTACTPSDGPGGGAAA

First: B1
Second: Y[dA]GFLPLW-{OBzl(3,5-(CF3)2)} [TyrDAlaGlyPheLeuProLeuTrpOBn(CF3)2 (TY004)]
The MVD opioid(delta) agonist IC50 of the first is 6-fold lower: 16.8 nM for the first, 101 nM for the second.

Y[dC]GF[dC]PLW-{NH(3,5-(CF3)2-benzyl)} (disulfide 2-5) [Tyr[DCysGlyPheDCys]ProLeuTrpNHBn(CF3)2 (TY037)] and Y[dA]GFMPLW-OBn [TyrDAlaGlyPheMetProLeuTrpOBn (TY029)] are within 1.5-fold of each other in MVD opioid(delta) agonist IC50: 8.28 nM for the first, 7.62 nM for the second.

Going from [Dmt][dA]GFMPLW-{NH(3,5-(CF3)2-benzyl)} [DmtDAlaGlyPheMetProLeuTrpNHBn(CF3)2 (TY032)] to Y[dA]GFGPLW-{OBzl(3,5-(CF3)2)} [TyrDAlaGlyPheGlyProLeuTrpOBn(CF3)2 (TY006)], the MVD opioid(delta) agonist IC50 rises from 1.82 nM to 172 nM (95-fold).

First: Y[dA]GFMPLW-{OBn(OMe)2} [TyrDAlaGlyPheMetProLeuTrpOBn(OMe)2 (TY030)]
Second: Y[dA]GFFPLW-{OBzl(3,5-(CF3)2)} [TyrDAlaGlyPhePheProLeuTrpOBn(CF3)2 (TY003)]
The MVD opioid(delta) agonist IC50 of the first is 75-fold lower: 12 nM for the first, 905 nM for the second.

Compared with Y[dA]GFMPLW-{NMe(benzyl)} [TyrDAlaGlyPheMetProLeuTrpNMeBn (TY026)], B2 is 4.2-fold higher in MVD opioid(delta) agonist IC50: 7.89 nM for the first, 33 nM for the second.

First: Y[dA]GF[dF]PLW-{OBzl(3,5-(CF3)2)} [TyrDAlaGlyPheDPheProLeuTrpOBn(CF3)2 (TY007)]
Second: [Dmt][dA]GFMPLW-{OBzl(3,5-(CF3)2)} [DmtDAlaGlyPheMetProLeuTrpOBn(CF3)2 (TY033)]
The MVD opioid(delta) agonist IC50 of the first is 320-fold higher: 412 nM for the first, 1.27 nM for the second.

Compared with Y[dA]GFMPLW-{NH(3,5-(CF3)2-benzyl)} [TyrDAlaGlyPheMetProLeuTrpNHBn(CF3)2 (TY027)], [Dmt][dA]GFMPLW-NHBn [DmtDAlaGlyPheMetProLeuTrpNHBn (TY034)] is 2.1-fold lower in MVD opioid(delta) agonist IC50: 14.5 nM for the first, 6.85 nM for the second.

Going from Y[dC]GF[Nle]PCW-{NH(3,5-(CF3)2-benzyl)} (disulfide 2-7) [Tyr[DCysGlyPheNleProCys]TrpNHBn(CF3)2 (TY035)] to Y[dA]GFMPLW-{OBzl(3,5-(CF3)2)} [TyrDAlaGlyPheMetProLeuTrpOBn(CF3)2 (TY005)], the MVD opioid(delta) agonist IC50 falls from 84.7 nM to 22.3 nM (3.8-fold).

Going from Y[dA]GFMPLW-{NMeBn(CF3)2} [TyrDAlaGlyPheMetProLeuTrpNMeBn(CF3)2 (TY028)] to Y[dC]GFMPLW-{OBzl(3,5-(CF3)2)} [TyrDCysGlyPheMetProLeuTrpOBn(CF3)2 (TY031)], the MVD opioid(delta) agonist IC50 rises from 11.2 nM to 235 nM (21-fold).

Compared with H-Y[dA]GFGPLW-{OBzl(3,5-(CF3)2)} (also: TFA salt) [H-Tyr-D-Ala-Gly-Phe-Gly-Pro-Leu-Trp-O-3,5-Bzl(CF3)2], H-Y[dA]GFLPLW-{OBzl(3,5-(CF3)2)} (also: TFA salt) [H-Tyr-D-Ala-Gly-Phe-Leu-Pro-Leu-Trp-O-3,5-Bzl(CF3)2] is 1.7-fold lower in MVD (δ) opioid agonist IC50: 172 nM for the first, 101 nM for the second.

Compared with H-Y[dA]GF[dF]PLW-{OBzl(3,5-(CF3)2)} (also: TFA salt) [H-Tyr-D-Ala-Gly-Phe-D-Phe-Pro-Leu-Trp-O-3,5-Bzl(CF3)2], H-Y[dA]GFFPLW-{OBzl(3,5-(CF3)2)} (also: TFA salt) [H-Tyr-D-Ala-Gly-Phe-Phe-Pro-Leu-Trp-O-3,5-Bzl(CF3)2] is 2.2-fold higher in MVD (δ) opioid agonist IC50: 412 nM for the first, 905 nM for the second.

H-Y[dA]GFMPLW-{OBzl(3,5-(CF3)2)} (also: TFA salt) [H-Tyr-D-Ala-Gly-Phe-Met-Pro-Leu-Trp-O-3,5-Bzl(CF3)2] showed an MVD (δ) opioid agonist IC50 of 22.3 nM.

First: [Dmt][dA]GFMPLW-{NH(3,5-(CF3)2-benzyl)} [DmtDAlaGlyPheMetProLeuTrpNHBn(CF3)2]
Second: Y[dA]GFS(Glc)PLW-{NH(3,5-(CF3)2-benzyl)} [TyrDAlaGlyPheSer(OGlu)ProLeuTrpNHBn(CF3)2]
The MVD IC50 of the first is 61-fold lower: 1.8 nM for the first, 109 nM for the second.

First: Y[dA]GFLPLW-{OBzl(3,5-(CF3)2)} [TyrDAlaGlyPheLeuProLeuTrpOBn(CF3)2]
Second: Y[dA]GF[Nle]PS(Glc)W-{NH(3,5-(CF3)2-benzyl)} [TyrDAlaGlyPheNleProSer(OGlu)TrpNHBn(CF3)2]
The MVD IC50 of the first is 8-fold higher: 101 nM for the first, 12.7 nM for the second.

Going from Y[dA]GF[dF]PLW-{OBzl(3,5-(CF3)2)} [TyrDAlaGlyPheDPheProLeuTrpOBn(CF3)2] to Y[dA]GFMPLW-{NH(3,5-(CF3)2-benzyl)} [TyrDAlaGlyPheMetProLeuTrpNHBn(CF3)2], the MVD IC50 falls from 412 nM to 14.5 nM (28-fold).

Going from [Dmt][dA]GFMPLW-{OBzl(3,5-(CF3)2)} [DmtDAlaGlyPheMetProLeuTrpOBn(CF3)2] to Y[dA]GFMPLW-{OBzl(3,5-(CF3)2)} [TyrDAlaGlyPheMetProLeuTrpOBn(CF3)2], the MVD IC50 rises from 1.3 nM to 22.3 nM (17-fold).

B3 and B4 are within 1.5-fold of each other in MVD IC50: 13.6 nM for the first, 16.8 nM for the second.

Going from Y[dA]GFGPLW-{OBzl(3,5-(CF3)2)} (also: TFA salt) [TyrDAlaGlyPheGlyProLeuTrpOBn(CF3)2] to Y[dA]GF[Nle]S(Glc″)LW-{NH(3,5-(CF3)2-benzyl)} [TyrDAlaGlyPheNleSer(OGlu)LeuTrpNHBn(CF3)2], the MVD IC50 falls from 172 nM to 18 nM (9.6-fold).

First: B5
Second: Y[dA]GFFPLW-{OBzl(3,5-(CF3)2)} [TyrDAlaGlyPhePheProLeuTrpOBn(CF3)2]
The MVD IC50 of the first is 27-fold lower: 33 nM for the first, 905 nM for the second.

Work on [Dmt][dA]GFMPLW-NHBn [DmtDAlaGlyPheMetProLeuTrpNHBn] yielded an MVD IC50 of 6.9 nM.

First: Y[dC]GF[dC]PLW-{NH(3,5-(CF3)2-benzyl)} (disulfide 2-5) [Tyr[DCysGlyPheDCys]ProLeuTrpNHBn(CF3)2]
Second: Y[dC]GF[Nle]P[dC]W-{NH(3,5-(CF3)2-benzyl)} (disulfide 2-7) [Tyr[DCysGlyPheNleProDCys]TrpNHBn(CF3)2]
The MVD (δ) IC50 of the first is 2.3-fold lower: 8.3 nM for the first, 19 nM for the second.

Compared with Y[dC]GF[Nle]PCW-{NH(3,5-(CF3)2-benzyl)} (disulfide 2-7) [Tyr[DCysGlyPheNleProCys]TrpNHBn(CF3)2], Y[dA]GFMPLW-{OBzl(3,5-(CF3)2)} [TyrDAlaGlyPheMetProLeuTrpOBn(CF3)2] is 3.9-fold lower in MVD (δ) IC50: 85 nM for the first, 22 nM for the second.

Y[dC]GFCPLW-{NH(3,5-(CF3)2-benzyl)} (disulfide 2-5) [Tyr[DCysGlyPheCys]ProLeuTrpNHBn(CF3)2] showed an MVD (δ) IC50 of 73 nM.
